Data from article PMC8514426 (Nature Communications, 2021).

B1: wild-type YibK–SH2 (expressed as SS–YibK–SH2) (natural protein)
chain: MLDIVLYEPEIPQNTGNIIRLCANTGFRLHLIEPLGFTWDDKRLRRSGLDYHEFAEIKRHKTFEAFLESEKPKRLFALTTKGCPAHSQVKFKLGDYLMFGPETRGIPMSILNEMPMEQKIRIPMTANSRSMNLSNSVAVTVYEAWRQLGYKGAVNLPEVK
notes: also called WT; not shown: SH2 domain of ABL1 kinase, C-terminal, kept

How the values were obtained:
[1] = biological target: purified YibK protein with R146C (21.6 kDa monomer) (UniProt P44868); experiment: SDS-PAGE without reducing agent and Western blot (disulfide-linked dimer); purified YibK protein, no reducing agent
two-hybrid = biological target: the molecule itself; experiment: two-hybrid

Molecule | stoichiometry N [1] | fold P_cadBA transcriptional activation over cytoplasmic YibK–SH2 (two-hybrid) [fold]
purified YibK protein with R146C (21.6 kDa monomer) (from UniProt P44868) (natural protein) | 2 | –
B1 | – | 66
